Measurements: the RNAGym collection of RNA variant scans (doi:10.1073/pnas.2313332121)
This sample holds only a part of the variants without activity.

B1: TPR 5TU (parent)
chain: GGAUCUUCUCGAUCUAACAAAAAAGACAAAUCUGCCACAAAGCUUGAGAGCAUCUUCGGAUGCAGAGGCGGCAGCCUUCGGUGGCGCGAUAGCGCCAACGUUCUCAACUAUGACACGCAAAACGCGUGCUCCGUUGAAUGGAGUUUAUCAUG

Variants of: B1
Assay: polymerase ribozyme fitness, log enrichment relative to wild type (log ratio); higher = more active; in vitro selection for triplet polymerase activity
In short: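 Each subunit of a heterodimeric triplet polymerase ribozyme was represented by a PCR-built, transcribed mutant library that underwent triplicate single-round in vitro selection with frozen incubation at −7 °C. Extended constructs were recovered by gel excision, streptavidin-bead capture and RT-PCR, and Illumina sequencing of input and output libraries kept genotypes with ≥10 input reads and ≥1 read per output. Fitness is the logarithm of genotype enrichment relative to wild-type enrichment, from inverse-variance-weighted replicate averages, with a logarithm base of 2.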

Variant	polymerase ribozyme fitness (log ratio)
G34A C69A A106G A147C	-3.75
A89C C93U G136C	≤ -4.2
C14U A115G	-2.56
U15G A39U U82G G84A G112U	≤ -4.2
A89G C99G U102A C123G U135C U145G	≤ -4.2
C85U G94C	-0.28
A16G U53A U146G	-2.19
C35A G50U C69A G74A	≤ -4.2
A22C A29U U33C A47C U53G C95U C105A C118U	≤ -4.2
A3C U7A G84U U144G	-2.38
A3C C43U U53A U61G U101G U139A	≤ -4.2
A121U C125U	-0.154
C95U C105G	-0.337
C8G U44A A52C C75A A91G U148G	≤ -4.2
G83U C95G G126U	-1.85
A20G A73U G83A	-2.36
U31C C54U G71U C96U	-3.79
C93A U102C C105A C125G G143U U144A	≤ -4.2
A28C U31G C125G	≤ -4.2
U6A C14U A91C A150U	≤ -4.2
U78C U146C	0.315
G42A G59A	-4.11
G59U U78G C79A C87U U109G A110U	-3.99
G80U C95G C96A	≤ -4.2

Variant	polymerase ribozyme fitness (log ratio)
U4A C103A	-2.38
C69G A106C A137C	≤ -4.2
A137C A138G	-3.68
A19G G59U	-0.93
A49G C76U A89C C96A	-2.23
A28G C79G C85U A115C U151A	≤ -4.2
A41U G83U	-1.35
A91C C96A G126A	≤ -4.2
A60G C87U U101A	-0.517
A122G U144G	0.851
A37C C54U A60C U61G C96U C99A G112A A115G	≤ -4.2
A122G A138G C149U	-4
G48A U55G A142C	-2.84
C57U A110G	-2.85
C27U G62A A97U A98C	-3.33
C63A G80A C85G C96G A110G	≤ -4.2
A19G A28U A40C A60C G71U C75A G86U	≤ -4.2
A12U C85U	-0.742
A39U G42C U77C C85A C95G	≤ -4.2
G50A G59C U90G	≤ -4.2
A23G A24U C27G U55A G92U	-3.98
A47G G81C G92C C95A A142G	-2.95
C8U G59C	-2.99
A28U G42C A52C G100C G117C	≤ -4.2

Variant	polymerase ribozyme fitness (log ratio)
A16U C54G A97C C116G G124U A137C	≤ -4.2
G68A C87A A106C G117U	≤ -4.2
A12U G92A A98G C125G G128U	≤ -4.2
G34A A49C C95U G140U G141A	≤ -4.2
G48U G65A C95U C105U C129G C132U	≤ -4.2
C54G U55G	≤ -4.2
U53C U56A A89U C93U G141U	-1.74
A39G U45A A49U U61A C75U G83U C129G U144G	≤ -4.2
U61C C96A A121G	-2.74
U53A A60U C63U C75U U77G C93G A122G C149G U151A	≤ -4.2
U13C C38U G86A G124C	-1.98
A20C G68C G141C	≤ -4.2
A26U A28U C32A A52U A73U A91U G92A A113G U148A G152U	≤ -4.2
G136U U144G	-3.29
C57G C123U U145A	-0.237
A47C G83U	-1.01
C96A U104A G124C	-1.19
C8U G141C	-2.78
A60G C116U	0.141
A41U C76U G88C U130C	≤ -4.2
C114U	-1.75
C54U G65U G81A C93U A97U	≤ -4.2
A73G C76A G88C C105G C108G C114U G136U	-3.91
C57U C93A G126C	-0.766

Variant	polymerase ribozyme fitness (log ratio)
U4G A24U G62U C87U A89U	-3.44
U9C U15G C54A G67C G84A G117A	≤ -4.2
C8G U82A C85A A91U C96U G117C	≤ -4.2
C51U C76U C96U A137U U144C U151A	≤ -4.2
A37C C105U	-0.652
A39C A91U G92A U139G	≤ -4.2
A3G C93A C108U C125G A142G U145G U146A	≤ -4.2
A30G U45G G46C C76U C87U U135A	≤ -4.2
U55A A97U	-0.916
A22U A47U C96U U148A	-4.14
G68C U78A	≤ -4.2
A26U G42U	≤ -4.2
G42C U44A G70C C96U G126U G141A	≤ -4.2
G48U G126U	-0.307
U7A G92U	-3.96
A49U G58C A66G G80U C85A C87A C108G G128U C149U	≤ -4.2
C14U C72A C85G G133U	≤ -4.2
U55C U109G	-0.246
A21C G58C U61G U146G	-3.25
A20U G42C C75A C105U C116U A120G G128A U146A	≤ -4.2
A22C U53A U56A A73G	-1.97
A22U A39U A41G A52C G83U G94A G152C	-4.02
G50U C63U C79G C131G A137C	≤ -4.2
A24U A28G C36U G62A U78G G83A A91G G128C	-3.66

Variant	polymerase ribozyme fitness (log ratio)
C10G C32A G86U G92C G124A A137G	≤ -4.2
A22U G42C G80A A91G C95G A98U	≤ -4.2
A41C C43U C63U G88U	≤ -4.2
A52C U56A G67C G84A U139G U144A	≤ -4.2
G92U U104G C132U	-2.5
C36A U55A C95G A97U U135A	≤ -4.2
A24U A40C A49C C72G G83U C87G U139G U144C U151G	≤ -4.2
C54U A91C	≤ -4.2
G65U A66C U77A A147C	≤ -4.2
A22G C72G C87U C93A C99A	≤ -4.2
C114A U144G	-3.71
A26U C51U C114U C129U	≤ -4.2
C14U C63U C85A A115G	-3.56
G11A U44A A52G C75U C76U G92C C149G	≤ -4.2
A21C A41C A115G	-1.51
A24U C131U	2.4
A21C A60G	0.714
A39C U53C U135C	-3.94
A52G G84U U144G	-1.56
A26U C54A U56G C75A C93A U134A	≤ -4.2
A41G G88U C131G	≤ -4.2
C14U A20C U33A C93G C103G C118U	≤ -4.2
C96A C125U U130C	-0.299
U78G C85G A142G U146C	≤ -4.2

Variant	polymerase ribozyme fitness (log ratio)
C14G C96U	-2.21
U7C U56A A91U A106U C132U	-3.92
C27U G94A	-2.73
A12G U13C C96A	-0.909
U13G A41C U55G G94C C116A G143U U151G	≤ -4.2
C32U C54G G68U C75A	-3.88
C36A U56G G68C A98G C103A A121U	≤ -4.2
C69U G84U G133C	-3.62
A26U C96U C108G U127A	≤ -4.2
A19U U45G	-0.38
C5G C38A A39C A60U A73G G94U U104A A138U	≤ -4.2
A21U C54U U146A	-0.081
U13A A30G A37C G68U	≤ -4.2
A19U C131A	-1.75
A23G C57U	-2.27
A39U U56A C93U	-3.55
A30U G42A U55G C69A G126U A142C	≤ -4.2
G50A C95U	-2.44
C8U A52C G68C	≤ -4.2
G58U C69G C87G	≤ -4.2
C36A A60C G71C C79A G84A A91G C93G	≤ -4.2
C14G A49G	-2.92
U82A A91G C105U	-2.53
C27G C96U A106G	-4

Variant	polymerase ribozyme fitness (log ratio)
U6C C8U U15G	-2.42
U7G A23G U53A C99G C116A C125G A137C	≤ -4.2
C79G G84A G100A A110C	≤ -4.2
A52C C85A	-3.22
U77A G81A A113U U134G	≤ -4.2
A19C A26C	-1.76
A52U A66G C87G A97G	≤ -4.2
G86C U145C	-3.66
C79A C108U	-4.06
A40C G94U C95G	-3.87
U31A C76U C93G	-2.71
A52G A137C	-3.28
U55A C72A A119U	≤ -4.2
C43A A52C G94A	≤ -4.2
A23C G25A U55A U61G G68A G92U A97U G124A G128C	≤ -4.2
A24U A41G C69A C99G	-2.54
C75U G136C	-2.6
G48C A110C G141U U148G	≤ -4.2
A22U C69G C75U C93U U101C U127A	≤ -4.2
A39G U53A C87U A115C	-3.83
A41C A60G G92A A106U	-3.98
C85A A106G	-2.01
C51A C85A G141A	-1.93
